The assay relates to Bcl10-YFP POLKADOTS formation. Briefly: Bcl10-YFP POLKADOTS formation in antigen-stimulated D10 T cells, fluorescence microscopy. The assay is classed as cell-based, murine. The conditions noted are these: D10 T cells with conalbumin-loaded CH12 B cells (100 μg/ml), fixed after 20 min, >200 T cells counted, FIG. 4. As to the method:
D10-IL2 (henceforth referred to as D10) is an IL-2 dependent subclone of the CD4^+ T cell clone D10 (16), maintained as described (17). Primary T cell blasts were prepared by stimulation of spleen and lymph node cells with 100 μg/ml plate-bound anti-TCRP for 48 hr, with IL-2 added for the final 24 hr of stimulation. CH12H-2^k B cells and CHb H-2^b B cells (18) were maintained as described previously (17).
Murine PKCθ was fused to a C-terminal linker (GRVELGR; SEQ ID NO:7) followed by GFP or CFP (19), modified by mutations that improve folding at 37° C. (20). Two I.M.A.G.E. expressed sequence tag (EST) clones encoding murine Bcl10 were purchased (2123397 and 3026026; ResGen). Clone 3026026 was used for PCR amplification of Bc 10, adding the C-terminal linker GR, which was then fused to the previously described modified YFP gene (17). […]
The inventors next examined whether formation of Bcl10 POLKADOTS is PKC-dependent (FIG. 4 and FIG. 5). […] Cells were fixed after 20 minutes and examined by fluorescence microscopy. For each group, >200 T cells were counted, and percentages with and without POLKADOTS were determined.
CH12 B cells that had been pre-incubated with no antigen or with 250 μg/ml conalbumin protein were then added. Cells were fixed after 30 min and examined by fluorescence microscopy. […]

B1: conalbumin: conalbumin protein, specific antigen loaded on CH12 B cells to stimulate D10 T cells (protein, UniProt P02789 20-705, looked up)
Ovotransferrin: APPKSVIRWCTISSPEEKKCNNLRDLTQQERISLTCVQKATYLDCIKAIANNEADAISLDGGQAFEAGLAPYKLKPIAAEVYEHTEGSTTSYYAVAVVKKGTEFTVNDLQGKTSCHTGLGRSAGWNIPIGTLLHRGAIEWEGIESGSVEQAVAKFFSASCVPGATIEQKLCRQCKGDPKTKCARNAPYSGYSGAFHCLKDGKGDVAFVKHTTVNENAPDQKDEYELLCLDGSRQPVDNYKTCNWARVAAHAVVARDDNKVEDIWSFLSKAQSDFGVDTKSDFHLFGPPGKKDPVLKDLLFKDSAIMLKRVPSLMDSQLYLGFEYYSAIQSMRKDQLTPSPRENRIQWCAVGKDEKSKCDRWSVVSNGDVECTVVDETKDCIIKIMKGEADAVALDGGLVYTAGVCGLVPVMAERYDDESQCSKTDERPASYFAVAVARKDSNVNWNNLKGKKSCHTAVGRTAGWVIPMGLIHNRTGTCNFDEYFSEGCAPGSPPNSRLCQLCQGSGGIPPEKCVASSHEKYFGYTGALRCLVEKGDVAFIQHSTVEENTGGKNKADWAKNLQMDDFELLCTDGRRANVMDYRECNLAEVPTHAVVVRPEKANKIRDLLERQEKRFGVNGSEKSKFMMFESQNKDLLFKDLTKCLFKVREGTTYKEFLGDKFYTVISSLKTCNPSDILQMCSFLEGK
As to B1, the “cells with Bcl10-YFP POLKADOTS” value is “over 80%”.

The record behind these values is patent US20040265915A1, “Method to identify regulators of cellular activation using Bcl10” (priority 2003, published 2004).
